Residues, ends and D or L forms follow the SMILES beside them. *: point of attachment. Cbz = O=C(OCc1ccccc1)*
How the values were obtained:
[1] = tested on: HLS-5; test: Confocal microscopy of HLS-5 localisation in COS7 cells; assay type: cell-based
Description: (A) Confocal microscopy of COS7 cells co-expressing Myc-tagged HLS-5 and GFP-SUMO-1. HLS-5 was detected with anti-Myc antibodies in conjunction with red secondary antibodies and SUMO-1 detected by green fluorescent. (B) Confocal microscopy of COS7 cells co-expressing Myc-tagged HLS-5 and GATA-1. GATA-1 was detected with an anti-GATA-1 antibody and HLS-5 was detected with anti-Myc antibodies in conjunction with red and green fluorescent secondary antibodies respectively. (C) Confocal microscopy of COS7 cells co-expressing myc-tagged HLS-5 in the presence of MG132. HLS-5 was detected with anti-Myc antibodies in conjunction with red fluorescent secondary antibodies
(§1) Also, COS7 cells co-expressing Myc-tagged HLS-5 or a mutant form of HLS-5 lacking its Ring finger (ΔN61) and HA-tagged SUMO1 were analysed in the presence or absence of MG132.
As HLS-5 is located principally within cytoplasmic granules, the effects of Ubc9, PIAS1, MG-132 and SUMO-1 on HLS-5 compartmentalization were investigated. […] However, when the SUMO-1 and HLS-5 were co-expressed, there was a remarkable increase in the amount of HLS5 appearing in the nucleus (FIG. 3A). Therefore SUMO1 promoted translocation of HLS-5 from cytoplasmic granules into the nucleus.

[2] = tested on: Hela cells; test: HLS5-induced apoptosis in co-transfected Hela cells; assay type: cell-based, human; conditions: HLS5 alone or co-transfected with the named protein
Description: To examine the biological effects of Ubc9, PIAS1 and SUMO-1 on HLS5-induced apoptosis, COS cells and HeLa cells were co-transfected with these molecules and cell death monitored. […] However, the effects of SUMO-1 on cell death induced by HLS5 were less pronounced.

[3] = tested on: Ubc9; test: Immunoblot of Ubc9 levels in COS cells co-expressing HLS-5; assay type: cell-based; conditions: co-expression, FIG. 5B
Description: (§2) (A) Hela cells co-expressing Myc-tagged HLS-5 and HA-tagged PIAS1. PIAS1 was detected with an anti-HA antibody and HLS-5 was detected as a GFP fusion protein in conjunction with red and green fluorescent secondary antibodies respectively. (B) COS7 cells transfected with GFP-tagged HLS-5 and/or HA-tagged PIAS1, UBC9 or SUMO-1 and immunoblotted (IB) with antibodies to HA. (C) Lysates from COS7 cells transfected with Different Myc-tagged HLS-5 deletion constructs and HA-tagged-PIAS1, and GFP-tagged Histone 2B as a transfection/Loading control. Samples were immunoblotted (IB) with antibodies to GFP, HA and Myc.
(§3) To investigate whether HLS-5 was a functional E3 ligase, SUMO-1 and HLS-5 were co-expressed in COS cells and total protein sumoylation ascertained by immunoblotting. […] We then investigated which domain of HLS-5 was involved in the elimination of PIAS1 protein expression. […] Thus, HLS-5 altered global protein SUMOylation and reduced intracellular content of SUMO-1, PIAS1 and Ubc9, key components of the SUMOylation machinery and this action is accomplished partly through its B Box & Coiled Coil domain.

[4] = target: T1, Ubc9 (Homo sapiens, UniProt P63279); test: Yeast two-hybrid binding of HLS-5 to Ubc9; conditions: yeast 2 hybrid, β-galactosidase filter assay
T1 construct: expressed in transfected cells; host or cells: yeast (two-hybrid)
Description: (§4) (A) Full length Ubc9 was examined for binding to various HLS-5 constructs as shown using yeast two-hybrid. Binding was measured by filter assay for β-galactosidase activity. (B) BRET assay of COS7 cells expressing HLS-5. Rluc fusion protein with increasing amounts of GFP-Ubc9 fusion protein. Results presented as BRET ratio. (C) PIAS1 (aa 303-651) fragment isolated from the Y2H screen was assessed for binding to various HLS-5 constructs as shown using yeast two-hybrid. Binding was measured by filter assay for β-galactosidase activity. (D) Lysates from COS7 cells transfected with Myc-tagged HLS-5, HA-tagged PIAS1 and/or GATA-1 were immunoprecipitated (IP) with anti-Myc antibodies and immunoblotted (IB) with antibodies to HA or Myc in the presence and/or absence of NEM/IAA.
A yeast two-hybrid screen for HLS-5 interacting partners identified two proteins involved in the sumoylation pathway viz Ubc9 and PIAS1.
The interaction between HLS-5 and Ubc9 was characterized further by yeast 2 hybrid assays to define important binding domains. […] To confirm that HLS-5 and Ubc9 were genuine binding partners, the interaction was investigated in mammalian cells using bioluminescence resonance energy transfer (BRET), which is able to detect protein:protein interactions in living cells (Xu et al., 1999, Proc Natl Acad Sci USA, 96, 151-156). […]

[5] = target: T2, PIAS1 (Homo sapiens, UniProt O75925); test: Co-immunoprecipitation of HLS-5 and PIAS1 in COS cells; assay type: binding; conditions: when GATA-1 was present
T2 construct: HA; expressed in transfected cells; host or cells: COS7
Description: as §4
As PIAS1 mainly is a nuclear protein (Tan et al., 2000, Mol Endocrinol, 14, 14-26), and HLS-5 is primarily cytoplasmic, the failure of these molecules to interact may be caused by subcellular separation. Since GATA-1 promotes nuclear re-localization of HLS-5 (see below and FIG. 3b) it was included in co-transfections with HLS5 and PIAS1. […] It is postulated that the redistribution of HLS-5 induced by GATA-1 enabled nuclear access and binding to PIAS1 or that GATA-1, HLS-5 and PIAS1 form a protein complex required for this interaction.

[6] = tested on: SUMO-2; test: Yeast two-hybrid binding of HLS-5 to SUMO-2; conditions: liquid β-galactosidase assay
Description: (§5) (A) Potential sumoylation sites of HLS-5 are shown. (B) Binding of Hls-5 deletion mutants to full length Sumo-1 was examined in the yeast system by filter assay for β-galactosidase activity. (C) Interaction between Hls-5 and Sumo-1, 2 or 3 was examined using yeast two-hybrid. Binding was assessed using a liquid assay to measure β-galactosidase activity. Samples were measured in triplicate and shown is the mean±standard deviation. (D) Lysates from COS7 cells transfected with Myc-tagged Hls-5, and/or HA-tagged Sumo-1, HA-tagged UBC9, HA-tagged PIAS1 were immunoblotted (IB) with antibodies to Sumo-1 or Myc.
(§6) Since HLS-5 was able to interact with Ubc9 and PIAS1, the possibility that HLS-5 is sumoylated was then examined. Like other RBCC/TRIM family members such as PML (Duprez et al., 1999, J Cell Sci., 112, 381-393; Kamitani et al., 1998, J. Biol. Chem., 273, 26675-26682), HLS-5 has several ΨKxE/D consensus sumoylation sites (FIG. 2a). To determine if HLS-5 was able to bind SUMO-1, the yeast two-hybrid system was employed using several HLS-5 deletion mutants.

[7] = target: T1, Ubc9; test: BRET assay of HLS-5 and Ubc9 in COS cells; assay type: binding; conditions: HLS-5 and Ubc9 constructs co-expressed in COS cells
Description: as §4
The interaction between HLS-5 and Ubc9 was characterized further by yeast 2 hybrid assays to define important binding domains. […] To confirm that HLS-5 and Ubc9 were genuine binding partners, the interaction was investigated in mammalian cells using bioluminescence resonance energy transfer (BRET), which is able to detect protein:protein interactions in living cells (Xu et al., 1999, Proc Natl Acad Sci USA, 96, 151-156). […] However, this interaction may well be transient as the two molecules could not be co-immunoprecipitate (data not shown). […]

[8] = target: T3, SUMO-1 (Homo sapiens, UniProt P63165); test: Yeast two-hybrid binding of HLS-5 to SUMO-1
T3 construct: expressed in transfected cells; host or cells: yeast (two-hybrid)
Description: as §5, §6

[9] = tested on: SUMOylated substrate; test: SUMOylated substrate co-immunoprecipitating with Myc-tagged HLS-5 in COS7 cells; assay type: cell-based; conditions: HA-tagged SUMO1, in the presence of MG132, FIG. 6A
Description: (A) COS7 cells co-expressing Myc-tagged HLS-5 or a mutant form of HLS5 lacking its Ring finger (ΔN61) and HA-tagged SUMO1 in the presence or absence of MG132. SUMOylated substrate was detected with an anti-HA antibody and HLS-5 was immunoprecipitated by using a Myc antibodies respectively.
as §1

[10] = tested on: global SUMOylation; test: Total protein sumoylation by immunoblotting in COS cells co-expressing SUMO-1 and HLS-5; assay type: cell-based; conditions: SUMO-1 and HLS-5 co-expressed
Description: as §2, §3

[11] = tested on: PIAS1; test: Immunoblot of PIAS1 levels in COS cells co-expressing HLS-5 or deletion mutants; assay type: cell-based; conditions: co-expression with HA-tagged PIAS1, FIG. 5B/5C
Description: as §2, §3

[12] = tested on: SUMO-3; test: Yeast two-hybrid binding of HLS-5 to SUMO-3; conditions: liquid β-galactosidase assay
Description: as §5, §6

[13] = tested on: SUMO-1; test: Immunoblot of SUMO-1 levels in COS cells co-expressing HLS-5; assay type: cell-based; conditions: SUMO-1 and HLS-5 co-expressed, FIG. 5B
Description: as §2, §3

[14] = tested on: GATA-1; test: GATA-1 transactivation luciferase reporter assay in COS cells; assay type: cell-based
Description: (§7) (B and C) Lysates from COS7 cells transfected with Myc-tagged HLS-5 and/or GATA-1, and/or HA-tagged Sumo-1, and/or HA-tagged PIAS1 were immunoblotted (IB) with antibodies to GATA-1, HA or Myc D) COS7 cells were transfected as shown in the presence of pGL3-M1α firefly luciferase reporter construct and pRN-CMV renilla luciferase construct. Relative GATA-1 activity was determined by dividing firefly activity with renilla activity. Amount of DNA used was 200 ng per transfection (+) unless otherwise shown. Samples were performed in duplicate and shown is the mean±range. Data shown are representative of three independent experiments.
The effect of HLS-5 on sumoylated GATA-1 transactivation was then examined using the MIα promoter and luciferase reporter assays. […] These observations contrast with the inhibitory effects of GATA-1 sumoylation on transactivation reported by Collavin et al. (2004, supra). […] These observations are consistent with a modulatory role for HLS5 in sumoylation.

[15] = tested on: GATA-1; test: Co-immunoprecipitation of HLS-5 and GATA-1 in COS cells; assay type: binding; conditions: with isopeptidase inhibitors NEM and IAA
Description: as §7
The interaction between GATA-1 and HLS5 was then examined biochemically by transfecting COS cells with myc-tagged HLS-5 and GATA-1, followed by immunoprecipitation and immunoblotting.

T1 sequence (P63279 whole entry, species assumed): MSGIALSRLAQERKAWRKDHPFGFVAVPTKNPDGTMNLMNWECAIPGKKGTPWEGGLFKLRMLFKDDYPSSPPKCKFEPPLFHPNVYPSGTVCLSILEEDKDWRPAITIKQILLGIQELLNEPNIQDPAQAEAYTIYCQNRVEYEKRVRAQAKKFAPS
T3 sequence (P63165 whole entry, species assumed): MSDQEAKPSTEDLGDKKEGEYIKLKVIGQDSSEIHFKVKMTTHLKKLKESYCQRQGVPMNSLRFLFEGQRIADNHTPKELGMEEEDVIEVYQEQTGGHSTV
T2 sequence (O75925 whole entry, species assumed): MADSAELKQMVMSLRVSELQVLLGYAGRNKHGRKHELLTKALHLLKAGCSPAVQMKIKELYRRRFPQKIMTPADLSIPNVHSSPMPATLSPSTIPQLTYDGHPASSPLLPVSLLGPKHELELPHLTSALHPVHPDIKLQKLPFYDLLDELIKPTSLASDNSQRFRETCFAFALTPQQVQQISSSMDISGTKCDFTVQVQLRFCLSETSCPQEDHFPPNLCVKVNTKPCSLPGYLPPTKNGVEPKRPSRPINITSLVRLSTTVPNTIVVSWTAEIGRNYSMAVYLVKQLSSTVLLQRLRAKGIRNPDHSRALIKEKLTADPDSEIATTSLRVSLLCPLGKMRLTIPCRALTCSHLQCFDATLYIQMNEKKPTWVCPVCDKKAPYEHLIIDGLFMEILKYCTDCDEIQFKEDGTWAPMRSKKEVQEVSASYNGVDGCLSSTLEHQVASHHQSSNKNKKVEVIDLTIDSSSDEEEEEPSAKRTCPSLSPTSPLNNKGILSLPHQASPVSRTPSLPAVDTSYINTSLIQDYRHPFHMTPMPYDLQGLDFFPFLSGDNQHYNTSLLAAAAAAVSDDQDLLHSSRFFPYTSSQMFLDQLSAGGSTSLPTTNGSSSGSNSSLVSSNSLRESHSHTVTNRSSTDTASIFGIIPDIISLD

Row | Molecule | translocation of HLS-5 from cytoplasmic granules into the nucleus ([1]; COS7 cells) | effect on HLS-5 accumulation ([1]; COS7 cells expressing myc-tagged HLS-5, FIG. 3C) | apoptosis / cell death caused by HLS5 [2] | Ubc9 protein level [3] | association with Ubc9 [4] | co-immunoprecipitation with PIAS1 [5] | binding to SUMO-2 [6] | BRET ratio [7] | interaction with SUMO-1 [8] | SUMOylated substrate detected with anti-HA antibody [9] | overall sumoylation [10] | PIAS1 protein level [11] | binding to SUMO-3 [12] | reduction of the levels of SUMO-1 [13] [%] | GATA-1 activity ([14]; co-expression with SUMO-1) | GATA-1 transactivation ([14]; in the presence of both SUMO-1 and PIAS1) | co-immunoprecipitation with GATA-1 [15]
1 | CC(C)C[C@@H](C=O)NC(=O)[C@H](CC(C)C)NC(=O)[C@H](CC(C)C)NC(=O)OCc1ccccc1 [MG132] (Cbz-Leu-Leu-Leu-aldehyde) | translocation was also observed | accumulation of HLS-5 |  |  |  |  |  |  |  |  |  |  |  |  |  |  | 
2 | Ubc9: E2 enzyme in the SUMO-1 conjugation pathway |  |  | 12 % of cells |  |  |  |  |  |  |  |  |  |  |  |  |  | 
3 | HLS-5: member of the RING finger B-box Coiled-coil (RBCC) protein family; tested by expression from transfected constructs (protein, listed as Homo sapiens) MERSPDVSPGPSRSFKEELLCAVCYDPFRDAVTLRCGHNFCRGCVSRCWEVQVSPTCPVCKDRASPADLRTNHTLNNLVEKLLREEAEGARWTSYRFSRVCRLHRGQLSLFCLEDKELLCCSCQADPRHQGHRVQPVKDTAHDFRAKCRNMEHALREKAKAFWAMRRSYEAIAKHNQVEAAWLEGRIRQEFDKLREFLRVEEQAILDAMAEETRQKQLLADEKMKQLTEETEVLAHEIERLQMEMKEDDVSFLMKHKSRKRRLFCTMEPEPVQPGMLIDVCKYLGSLQYRVWKKMLASVESVPFSFDPNTAAGWLSVSDDLTSVTNHGYRVQVENPERFSSAPCLLGSRVFSQGSHAWEVALGGLQSWRVGVVRVRQDSGAEGHSHSCYHDTRSGFWYVCRTQGVEGDHCVTSDPATSPLVLAIPRRLRVELECEEGELSFYDAERHCHLYTFHARFGEVRPYFYLGGARGAGPPEPLRICPLHISVKEELDG |  |  | 60 % of cells | reduced the levels of Ubc9 | able to associate with Ubc9 | could co-immunoprecipitate | neither SUMO-2, nor SUMO-3 bound | positive BRET ratio | could interact with SUMO-1 | SUMOylated substrate detected | reduced | almost complete elimination of PIAS1 | neither SUMO-2, nor SUMO-3 bound | > 95 | decreased GATA-1 activity | suppressed GATA-1 transactivation | GATA-1 was detected in HLS-5 immunoprecipitates

Reference: patent US20100048450A1, “Sumoylation Control Agent and Uses Thereof” (priority 2005, published 2010)
